Laboratory results: PMC9793311, “Negative cooperativity underlies dynamic assembly of the Par complex regulators Cdc42 and Par-3” (The Journal of Biological Chemistry, 2022)

T1: Par complex (Drosophila melanogaster, UniProt O97111 1-351; A1Z9X0 1-606)
T1 construct: atypical PKC (aPKC), Drosophila melanogaster, residues 1-606, from pCMV aPKC; also called Par-6/aPKC; intact Par complex
T1 sequence (looked up) 1: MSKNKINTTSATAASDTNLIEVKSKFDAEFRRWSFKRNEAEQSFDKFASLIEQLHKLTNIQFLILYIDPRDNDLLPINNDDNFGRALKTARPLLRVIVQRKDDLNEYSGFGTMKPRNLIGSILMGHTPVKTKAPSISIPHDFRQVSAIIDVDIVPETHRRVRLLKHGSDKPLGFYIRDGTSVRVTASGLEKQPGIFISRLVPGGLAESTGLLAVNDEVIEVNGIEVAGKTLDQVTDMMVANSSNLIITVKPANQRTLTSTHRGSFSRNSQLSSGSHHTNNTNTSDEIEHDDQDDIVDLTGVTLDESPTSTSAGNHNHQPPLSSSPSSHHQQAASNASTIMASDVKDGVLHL
T1 sequence (looked up) 2: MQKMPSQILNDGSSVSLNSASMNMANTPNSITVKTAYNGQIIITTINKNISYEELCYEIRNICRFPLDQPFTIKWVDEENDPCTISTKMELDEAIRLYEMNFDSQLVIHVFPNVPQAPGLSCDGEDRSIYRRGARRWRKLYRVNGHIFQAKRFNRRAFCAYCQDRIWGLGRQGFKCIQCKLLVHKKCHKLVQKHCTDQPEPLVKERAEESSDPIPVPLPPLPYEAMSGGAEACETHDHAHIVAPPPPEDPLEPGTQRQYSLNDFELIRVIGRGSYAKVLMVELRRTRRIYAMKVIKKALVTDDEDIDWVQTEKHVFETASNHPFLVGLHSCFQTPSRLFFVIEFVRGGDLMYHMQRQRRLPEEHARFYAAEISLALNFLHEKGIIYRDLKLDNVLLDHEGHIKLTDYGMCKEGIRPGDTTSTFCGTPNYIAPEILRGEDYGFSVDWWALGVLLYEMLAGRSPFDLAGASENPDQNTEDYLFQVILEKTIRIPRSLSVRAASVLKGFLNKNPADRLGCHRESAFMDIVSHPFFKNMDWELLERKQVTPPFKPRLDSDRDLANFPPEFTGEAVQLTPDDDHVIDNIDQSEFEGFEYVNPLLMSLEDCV

B1: GST-Cdc42^Q61L (natural protein)
chain: not shown
notes: Cdc42, Drosophila melanogaster, residues 1-191 with Q61L, from pGEX; Nucleotide state is not described; Q61L is called constitutively active; also called GST-fused Cdc42Q61L; solid phase Cdc42^Q61L; source: E. coli BL21-DE3, lysate adsorbed to glutathione resin and washed; not shown: GST, N-terminal, kept
B2: GST-Par-3 PDZ3 (domain or fragment, Drosophila melanogaster, UniProt O96782 616-741, looked up)
chain: HSREELTLHIPVHDTEKAGLGVSVKGKTCSNLNASGSSASSGSNGLMKHDGDLGIFVKNVIHGGAASRDGRLRMNDQLLSVNGVSLRGQNNAEAMETLRRAMVNTPGKHPGTITLLVGRKILRSAS
notes: Par-3 (Bazooka), Drosophila melanogaster, PDZ3, residues 616-741, from pGEX; source: E. coli BL21-DE3, lysate adsorbed to glutathione resin and washed; not shown: GST, N-terminal, kept
B3: His-Par-3 BR-PDZ2 (domain or fragment, Drosophila melanogaster, UniProt O96782 426-533, looked up)
chain: PVGTSLQVANTRKLGRKIQIMLKKGPNGLGFSVTTRDNPAGAHCPIYIKNILPRGAAIEDGRLKPGDRLLEVDGTPMTGKTQTDVVAILRGMPAGATVRIVVSRQQEL
notes: Par-3 (Bazooka), Drosophila melanogaster, basic region and PDZ2, residues 426-533, from pET19; source: E. coli BL21-DE3, His-purified
B4: His-Par-3 PDZ2 (domain or fragment, Drosophila melanogaster, UniProt O96782 444-533, looked up)
chain: QIMLKKGPNGLGFSVTTRDNPAGAHCPIYIKNILPRGAAIEDGRLKPGDRLLEVDGTPMTGKTQTDVVAILRGMPAGATVRIVVSRQQEL
notes: Par-3 (Bazooka), Drosophila melanogaster, PDZ2, residues 444-533, from pET19; source: E. coli BL21-DE3, His-purified
B5: MBP-Par-3 PDZ1-APM (domain or fragment, Drosophila melanogaster, UniProt O96782 309-987, looked up)
chain: DGEMLLIINEYGSPLGLTALPDKEHGGGLLVQHVEPGSRAERGQLRRDDRILEINGIKLIGLTESQVQEQLRRALESSELRVRVLRGDRNRRQQRDSKVADMVEVATVSPTRKPHAAPVGTSLQVANTRKLGRKIQIMLKKGPNGLGFSVTTRDNPAGAHCPIYIKNILPRGAAIEDGRLKPGDRLLEVDGTPMTGKTQTDVVAILRGMPAGATVRIVVSRQQELAEQADQPAEKSAGVAVAPSVAPPAVPAAAAPAPPIPVQKSSSARSLFTHQQQSQLNESQHFIDAGSESAASNDSLPPSSNSWHSREELTLHIPVHDTEKAGLGVSVKGKTCSNLNASGSSASSGSNGLMKHDGDLGIFVKNVIHGGAASRDGRLRMNDQLLSVNGVSLRGQNNAEAMETLRRAMVNTPGKHPGTITLLVGRKILRSASSSDILDHSNSHSHSHSNSSGGSNSNGSGNNNNSSSNASDNSGATVIYLSPEKREQRCNGGGGGGSAGNEMNRWSNPVLDRLTGGICSSNSAQPSSQQSHQQQPHPSQQQQQQRRLPAAPVCSSAALRNESYYMATNDNWSPAQMHLMTAHGNTALLIEDDAEPMSPTLPARPHDGQHCNTSSANPSQNLAVGNQGPPINTVPGTPSTSSNFDATYSSQLSLETNSGVEHFSRDALGRRSISEKHHA
notes: Par-3 (Bazooka), Drosophila melanogaster, residues 309-987 (PDZ1 to the aPKC phosphorylation motif), from pMAL Par-3 309-987-His; also called MBP-Par-3 PDZ1-APM-His; Bazooka; source: E. coli BL21-DE3; His-purified (soluble phase) or lysate adsorbed to amylose resin and washed (solid phase); not shown: MBP, N-terminal, kept
B6: His-Par-6 CRIB-PDZ (domain or fragment, Drosophila melanogaster, UniProt O97111 130-255, looked up)
chain: KTKAPSISIPHDFRQVSAIIDVDIVPETHRRVRLLKHGSDKPLGFYIRDGTSVRVTASGLEKQPGIFISRLVPGGLAESTGLLAVNDEVIEVNGIEVAGKTLDQVTDMMVANSSNLIITVKPANQR
notes: Par-6, Drosophila melanogaster, CRIB-PDZ, residues 130-255, from pBH; chosen because the methods name GST-Cdc42^Q61L as the solid phase; source: E. coli BL21-DE3, His-purified
B7: MBP-Par-3 PDZ1-APM ΔPDZ1 (domain or fragment, Drosophila melanogaster, UniProt O96782 393-987, looked up)
chain: LRGDRNRRQQRDSKVADMVEVATVSPTRKPHAAPVGTSLQVANTRKLGRKIQIMLKKGPNGLGFSVTTRDNPAGAHCPIYIKNILPRGAAIEDGRLKPGDRLLEVDGTPMTGKTQTDVVAILRGMPAGATVRIVVSRQQELAEQADQPAEKSAGVAVAPSVAPPAVPAAAAPAPPIPVQKSSSARSLFTHQQQSQLNESQHFIDAGSESAASNDSLPPSSNSWHSREELTLHIPVHDTEKAGLGVSVKGKTCSNLNASGSSASSGSNGLMKHDGDLGIFVKNVIHGGAASRDGRLRMNDQLLSVNGVSLRGQNNAEAMETLRRAMVNTPGKHPGTITLLVGRKILRSASSSDILDHSNSHSHSHSNSSGGSNSNGSGNNNNSSSNASDNSGATVIYLSPEKREQRCNGGGGGGSAGNEMNRWSNPVLDRLTGGICSSNSAQPSSQQSHQQQPHPSQQQQQQRRLPAAPVCSSAALRNESYYMATNDNWSPAQMHLMTAHGNTALLIEDDAEPMSPTLPARPHDGQHCNTSSANPSQNLAVGNQGPPINTVPGTPSTSSNFDATYSSQLSLETNSGVEHFSRDALGRRSISEKHHA
notes: Par-3 (Bazooka), Drosophila melanogaster, residues 393-987, from pMAL Par-3 393-987-His; source: E. coli BL21-DE3, His-purified
B8: MBP-Par-3 PDZ1-APM ΔPDZ3 (domain or fragment, Drosophila melanogaster, UniProt O96782 309-987, looked up)
chain: DGEMLLIINEYGSPLGLTALPDKEHGGGLLVQHVEPGSRAERGQLRRDDRILEINGIKLIGLTESQVQEQLRRALESSELRVRVLRGDRNRRQQRDSKVADMVEVATVSPTRKPHAAPVGTSLQVANTRKLGRKIQIMLKKGPNGLGFSVTTRDNPAGAHCPIYIKNILPRGAAIEDGRLKPGDRLLEVDGTPMTGKTQTDVVAILRGMPAGATVRIVVSRQQELAEQADQPAEKSAGVAVAPSVAPPAVPAAAAPAPPIPVQKSSSARSLFTHQQQSQLNESQHFIDAGSESAASNDSLPPSSNSWSSDILDHSNSHSHSHSNSSGGSNSNGSGNNNNSSSNASDNSGATVIYLSPEKREQRCNGGGGGGSAGNEMNRWSNPVLDRLTGGICSSNSAQPSSQQSHQQQPHPSQQQQQQRRLPAAPVCSSAALRNESYYMATNDNWSPAQMHLMTAHGNTALLIEDDAEPMSPTLPARPHDGQHCNTSSANPSQNLAVGNQGPPINTVPGTPSTSSNFDATYSSQLSLETNSGVEHFSRDALGRRSISEKHHA
notes: Par-3 (Bazooka), Drosophila melanogaster, residues 309-987 with 616-741 deleted, from pMAL Par-3 309-987 Δ616-741-His; source: E. coli BL21-DE3, His-purified

Legend:
Details in all cases: both partners purified
Par complex [1] = target: T1, Par complex; assay: supernatant depletion; GST-Cdc42^Q61L on GSH resin (ligand), soluble Par complex (receptor), 60 min at room temperature; 20 mM Hepes pH 7.5, 100 mM NaCl, 5 mM MgCl2, 0.5% Tween-20, 1 mM DTT, 200 uM ATP; KD from the fraction depleted at one dilution, in sextuplicate
Par complex [2] = target: T1, Par complex; assay: pull-down; GST-fused protein on glutathione resin (from bacterial lysate, washed 4x); soluble purified proteins added, 60 min at room temperature; 20 mM Hepes pH 7.5, 100 mM NaCl, 5 mM MgCl2, 0.5% Tween-20, 1 mM DTT, 200 uM ATP; Coomassie-stained gel
Par complex [3] = target: T1, Par complex; assay: supernatant depletion; MBP-Par-3 PDZ1-APM on amylose resin (ligand), soluble Par complex (receptor), 10 min at room temperature; 20 mM Hepes pH 7.5, 100 mM NaCl, 5 mM MgCl2, 0.5% Tween-20, 1 mM DTT, 200 uM ATP; KD from the fraction depleted at one dilution, in sextuplicate
GST-Cdc42^Q61L = target: B1; assay: supernatant depletion; Cdc42 with Par-6 CRIB-PDZ (Figure S1); the text does not say which of the two was on the resin; buffer as for the other supernatant depletion assays
Chain of GST-Cdc42^Q61L (P40793 whole entry Q61L, the tested form may be a part): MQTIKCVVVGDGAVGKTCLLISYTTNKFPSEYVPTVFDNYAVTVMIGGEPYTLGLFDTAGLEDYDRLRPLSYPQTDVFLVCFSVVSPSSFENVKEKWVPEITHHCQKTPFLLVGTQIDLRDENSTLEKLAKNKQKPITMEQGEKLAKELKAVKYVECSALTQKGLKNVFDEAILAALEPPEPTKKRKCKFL

Binder	binding result (Par complex [2])	also measured
B1	–	Kd (Par complex [1]): 5400 nM
B2	binds	–
B3	binds	–
B4	binds	–
B5	–	Kd (Par complex [3]): 600 nM
B6	–	Kd (GST-Cdc42^Q61L): 2300 nM
B7	binds	–
B8	binds	–
